Laboratory results taken from article PMC3836952.

Experiments:
Cys25 = Cys25 (UniProt position 150, GACGSCWAFSA); experiment: kinetics; details: 35 °C, constant ionic strength (four-component buffer; value not stated), 25 mM glycine, 25 mM acetic acid, 25 mM Mes, 75 mM Tris, 5 mM DTT, pH adjusted with HCl or NaOH
His163 = His163 (UniProt position 288, GKQLNHGVLLV); experiment: kinetics; details: 35 °C, constant ionic strength (four-component buffer; value not stated), 25 mM glycine, 25 mM acetic acid, 25 mM Mes, 75 mM Tris, 5 mM DTT, pH adjusted with HCl or NaOH
[1] = Enzyme-substrate complex (saturating Z-FR-MCA) in the presence of 40 µM heparin (10 kDa bovine lung heparin)
[2] = Enzyme-substrate complex (saturating Z-FR-MCA), no heparin (control)

Cysteine protease B isoform CPB2.8 lacking the C-terminal extension (CPB2.8ΔCTE, rCPB2.8), cathepsin L-like (Leishmania mexicana; none (C-terminal extension deleted; residue range not stated))
pKa (Cys25; [1]): 4.6± 0.1
pKa (Cys25; [2]): 5.1±0.1
pKa (His163; [1]): 8.8±0.1
pKa (His163; [2]): 7.8±0.1
